Measured values from the DeepSol protein solubility set.

Test: soluble on expression in E. coli; label from the status in PepcDB or PDB records

Sequence	soluble on expression in E. coli
MYKVLRKERLTPKAVLLEVQDERAKLVKPGQYALVQANEESEPIPLSFLDVKESSYTFLVEVGGRATLEIAELVEEKIQFIEAPCGSPFPVKNYGKVLLISKNWGVAPLINIGRALKEESNEIYFVHVAEDEERVFLTKEASEISEEFLLFTEDGSLGEEGNSEWALGYFIENFGKPDLIVSAGSNLDSQMINRFAEERNIPHIAMVNAHILDANGLCLACRVLVEGQEKLACIDGPWFDASKVDWDYAIQKEAFYKEEEEKALKTFLRELQRLKARGR	not soluble
MYNISFTPDRPLTYHLEDDQSLARLSLVPGRGGLVTEWTVQGQPILYFDRERFQDPSLSVRGGIPILFPICGNLPQDQFNHAGKSYRLKQHGFARDLPWEVIGQQTQDNARLDLRLSHNDATLEAFPFAFELVFSYQLQGHSLRIEQRIANLGDQRMPFSLGFHPYFFCREKLGITLAIPANDYLDQKTGDCHGYDGQLNLTSPELDLAFTQISQPRAHFIDPDRNLKIEVSFSELYQTLVLWTVAGKDYLCLEPLEHHHHHH	not soluble
MYNVVSFNNEGVEHMKPTSEKSKEIRKKYKAPGASDEQLANSIKVASEFEYKNSSTFGWGGVYMVDRFQSMITGRAITNNTQKLLDAQALEEEASKANLKQ	not soluble
MYPDHMFKYVIIGDGGVGKSNLLLRFTDELFDPIHTTTLGVEFGYKDLQIDKYKVRLRVWDTCGQENFRSIIRAYYRNALGALLVYDITCRKSFVHLEQWLSDLRQHGHPEMVIMLIGNKSDLKAVRDVTTEEGEAFAKKNGLTFMETSAKANKHVEKAFVNTAHEIYKKLKLGVIEDDDVKKKKIGIILRSRSGKEKKCC	soluble
MYRSEVSKPQLENPNLVDRIIVIILPNYFYEYESVLKHITKENFGIIEKTVKHFKTEEVMEWKSADLESQDIWNLSDRLIDGPCMLLLCQRANAFIEMKEVAKYHNVIAKRMSSSDGIYYSKTTIAAYHDIIFFFPKYIDERAMLKHAKDYLSVEVWPKLSQGLARVAVERPDNPIKWLADYLHQLRQ	not soluble
MYSNVQPFINSDLTNCFQSQYTEIESLLFNLLDSPVKYTKHIGGTHHFKYSTEPILDILVGVENLHDITSLDEKRLNYVGFYRLHHKYTKKVMMAKFNNFHELKQQVRLHIIQMNTQTFESYLALDYLLSTNDDIALQFNTKKHQILQHSLTIRQYEMQKQQYFEKLCKKY	not soluble
MYTFDTTDHKSPCCNFQWYIFRKQGESRIITCELFGVIVSLENRWDWLEFMIDDSLQLTAFRCPKRDKLGMETLLQLGDVAQVTGNWKLSNGAFLNATKIAIHNNPDVECKYWLQQIQKYKSKVCELEIPSDWIRRQQRAHNLKTDAVLSFSAQVSTAAATCWKLWKKHFNQGGKISLQRLWEVIQRENCPKMQELSSCRRNQIVQLLIHLGYLIPLSKEPETYVLLIDDILDKQVMQIFNQNIASKTLSLREVAYRLEEYFHVEEISLERVEESILRLAYKEKVEQV	not soluble
MYYAIPTVVVSECLGFSACRYNGDIIRNSFVSRLGEFARLVPVCPEVAIGLGVPRETVRLVKRGEERRLVQSSTNRDWTREMNEFATSFFGQVGEVDGFILKGRSPTCGIKDVRVYDDEESGMVVEKGVGLFAEHVFRRFPNAAIEEEGRLTNAAIREHFLTKVFALALFREVKAKRSMKALVQFHSEHKYLFMAYSQTWLKQLGRLVANRDRLPVEQVLEAYGQGLHALFARAPQRRSHVNVCQHLMGYFKKEMSAKEKQYVLELLAQYRAQQLPLSSVASVLKSWAIREENDYLLQQRYFAPYPPALLDVRDSGKGREKAV	not soluble
NATLKGLKLSERSTTEIQLLAEQAITVSKQEVKEFTYKVESNKQFEATVKIKADLKIDPTKAMSHIENIFKDDETKKKDAQNSLTMSMGQNEALEATFTYSPATQGIFGRASFDRFTSNIKLNTKLRIQVSSTSDLMKKLLENSLTSSLKDQSFDNEGVNLFPYTLFAL	not soluble
NDAIIILNGEKVLDLNKKGREAFGLGARELDNISIGSLLSEKDLPAVRDALKTTLENGSACFEMKFRKQNGEVIDVEVSSSFLSLEEGEIQCVARD	not soluble
NDPDADRFALAARKPDGGYKMLTGDQVGTLFGHYLLTHTEASGKLVGNTIVSSTLLKKIAESMGAEYFQTLTGFKWLTNVAMQKETKEKQFLFAYEEALGYTIGSQVWDKDGLSALVAFAQLTAELATQGKCVWDQLESIYRQHGIHIN	not soluble
NDTVLIAGAGHAGFQVAVSLRQAKYPGRIALINDEKHLPYQRPPLSKAYLKSGGDPNSLMFRPEKFFQDQAIELISDRMVSIDREGRKLLLASGTAIEYGHLVLATGARNRMLDVPNASLPDVLYLRTLDESEVLRQRMPDKKHVVVIGAGFIGLEFAATARAKGLEVDVVELAPRVMARVVTPEISSYFHDRHSGAGIRMHYGVRATEIAAEGDRVTGVVLSDGNTLPCDLVVVGVGVIPNVEIAAAAGLPTAAGIIVDQQLLTSDPHISAIGDCALFESVRFGETMRVESVQNATDQARCVAARLTGDAKPYDGYPWFWSDQGDDKLQIVGLTAGFDQVVIRGSVAERSFSAFCYKAGKLIGIESVNRAADHVFGRKILPLDKSVTPEQAADLSFDLKKAAA	soluble
NEPFHLATERNRVAVMSSGGKESLTTFGMLREIGADVFPVFFNESGGHWKTAKIAYDYMKKNYSNVHKVWSNVDRFYSFMNGHMPMLDQKEIRKTADSYPVQ	not soluble
NFLLTQPHSVSESPGKTVTISCTRSSGSIANNYVHWYQQRPGSSPTTVIFEDDHRPSGVPDRFSGSVDTSSNSASLTISGLKTEDEADYYCQSYDHNNQVFGGGTKLTVLG	soluble
NFNSQNGVNKDEKDHLIERLYREISGLKAQLENMKTESQRVVLQLKGHVSELEADLAEQQHLRQQAADDCEFLRAELDELRRQREDTEKAQRSLSEIERKAQANEQRYSKLKEKYSELVQ	soluble
NGFQKEIRGQLLNVAPHAEIGYIDNTDTDWRNLLRFTENRKGILAAAPYVSNQALLANAGEIRGVQMRGILPSEERKVVEYGDKMPAGKFEDLIPGEFDIILGVGLAEALGAEVGNKVTVITPEGNVTPAGVVPRLKQFTVVGLVKTGVYEVDNSLAMTHIQDARVLYRLDKEVAGLRLKLADPQNAPALTATLIPEAQRDAVWVRDWTYSNRSYFEAVELEKR	soluble
NGQIMYRIVTVQDSTERLESQSALRESEERFRSVVESAPDAIFIQTGGRFAYLNHSAIALFGASKAEEILGRRVADQIHPDYRDLVAERIRLLNERQ	not soluble
NGVPSTNVNTPAPNTGQSTAQNTNTASPLPYNRATTLPAAGTEDLKKSVQALQNTLTELQALQLQTKQAHWNVSGTLWYTLHELLQDHYEGISKFADDVAERQLSVGASSDGRAITIVAASRLPEIPGGFLDDAQVIQFFTYQYETVGQRIHQRVGDVEKVDPTTANLLQEVEHIIEKYQWQMRAFLQNTPTDPNTGFDINNGKPVPLRGR	soluble
NHYLQAEVVTAFLGLQHAAKRADFNLQPASTYRDFNRQMLIWNAKFNGKRKIHNDASKQIDITTLTDLAKIKAILRWSAVPGASRHHWGTEIDIFDPDLLPQGQHLQLEPWEYQSNGYFAPLIKWLHQHSASFGFYFPFDGIQNSQ	not soluble
NIGSGTDEKTATARAKVVDWCNELVIASPSTKCELLAKVQETVLGSCAELAEEFLESVLSLAHDSNMEVRKQVVAFVEQVCKVKVELLPHVINVVSMLLRDNSAQVIKRVIQACGSIYKNGLQYLCSLMEPGDSAEQAWNILSLIKAQILDMIDNENDGIRTNAIKFLEGVVVLQSFADEDSLKRDGDFSLADVPDHCTLFRREKLQEEGNNILDILLQFHGTTHISSVNLIACTSSLCTIAKMRPIFMGAVVEAFK	soluble
NIITVTLNMERHHFLGISIVGQSNDRGDGGIYIGSIMKGGAVAADGRIEPGDMLLQVNDVNFENMSNDDAVRVLREIVSQTGPISLTVAK	soluble
NKDFEWSTTGTFSLNSNKLISLSGSIFKSDYDYFNTGTVEYSGQVADSHRVQVGESIGNFYGFKVVDVDSEGRWIYEDRNGELVNYKDFTHAPEDKHVIGNGLPKWYAGWNNTLRYKNFDLNVTMRGAFGFQIINGGRMNYENVKNSRFENRLKSVNDLVFGKHTLSPEVEPEFNSYYVEDGDYWKIDNITLGYSFGQVGKYIKSLRIYGSVLNALTITGYKGIDPEVSTDGLTPGYDTRDRYPSVRSFTFGVNVKF	not soluble
NKDMALTVRGNFTHAENEVIYWEQSGVNYPYQSNSGVPYKVQRGLIALGLFKDEDDIKSSPKQTFMDNYRPGDIKYKDVNGDGKIDKDDVVPLNYSAVPFIQYGFALDWNYKAFRVSILFEGVSKVQYFQGGRGFYPFLNESRGNLLEMVADPRNRWIPREYAEVNGIDPALAENPNAKFPRLTYGENKNNNQESTFWLADGKYLRLKNVDVSYRFTNNWLKSRVGVESATLSLIGENLHVWDKVKLFDPSQASGNGAEYPLQRMYTLQLNLTF	not soluble
NKNLWATIRGNFTYASSKFSKYEEPDYSATPWRSKIGTKLSQEFGLIAERLFVDEEDVANSPKQQFGEYMAGDIKYKDINHDGIIDEQDRVPIGYPTTPEIIYGFGFSIGYKDFDFNCFFQGSSRSSFFISPADISPFIQPNDPNNELGGKQATNALLQIVADDHWSEANQNMYAFWPRLSDTAISNNNQKSTWWLRDGTFLRMKSAEIGYTLPKRISSKAKLENFRIYVSGTNLFNISKFKTWDTEMGGNGLGYPVQRVFNIGVQLSL	not soluble
NKYYKLGEIAQKVLVGGEKPADFSKEKNEVYKYPILSNNSKAEEFLVYSKTFRVEEKSITVSARGTIGAVFYRDFAYLPAVSLICFVPKEEFDIRFLFHALRAIKFKKQGSATGQLTVAQFKEYGIHVPSLKKQKEIAAILDPLYS	not soluble
NLHLLEYLHILPLDKIGIPKFAPKLDRKKHGDLDRPNLIYPADEQIYIHVYPDKNDMRNFYIPIEPTLLTGVDELLKEVEIRLVDYITDIDF	not soluble
NLQPLETTITDVERFKDTVTLELSCPSCDKRFPFGGIVSSNYYRVSYNGLQCKHCEQLFTPLQLTSQIEHSIRAHISLYYAGWLQCDDSTCGIVTRQVSVFGKRCLNDGCTGVMRYKYSDKQLYNQLLYFDSLFDCEKNKKQELKPIYLPDDLDYPKEQLTESSIKALTEQNRELMETGRSVVQKYLNDCGRRYVDMTSIFDFMLN	soluble
NMDVDIMSNQDEWRLYRYFIGRSKQTYARPSGSGTSTNEILQEGYYKVPIFARSRYWFNGEYWPALFEQAYANWKFPNDSKYNAILQIGGGWPEEALCELSGDSWFTSSGKLMLSSFTDLSLLNFMKSMCYSWKTIKPMVIVTPCWEPLPPMMPGIAAYH	not soluble
NMIKAAISRQREFLADASAVQFTRNDQGIAGALKKIGSNVQGSTLNTKASDEMSHMMFGQSKLSGFSGLFATHPPLDERIRRIEPNWDGSYAQHSHAQNTAFDNEQVSGFAVGGGSPASQSASPSEQLSETGQQLISQLPPELVDIAREPYSARFIAFALIFDGSDIQREMIKSYVPLASQSTLLPWLDYDLPLHLRFPLLELALPALKSLSEAQKISLCKVLRELSETDNQYSLAEWCVINLLEKQLLASFGFIKQHKSLKQLEESVFWLLRELAWVSHSQADKAQRAYHCALAHLGFPEVKLEPANSNWHLSRAALELLLQLKPNDRRMFVKACRLAIESDGEITVAEGEIYRVIACFLEVPEPPLTISG	not soluble
NPIEMDYIRQIEDVNNRRMKALRPPHRKEVLKAREDDIKDRVQNWMSRENEPRLQRISSELLKEYDSTELVASLLQELVEANDEVE	not soluble
